{"source": "the supplement of paper PMC9170038"}
{"test_system": "MS2 coat protein", "test": "apparent KD of MS2 coat protein; higher = weaker reporter binding", "settings": "Eterna round: R107; input ligand: none", "summary_of_the_method": "(§1)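 The designed RNA switches were transcribed on-chip from Illumina sequencing clusters. In 100 mM Tris-HCl pH 7.5, 80 mM KCl and 4 mM MgCl2, without or with constant ligand, they were titrated with SNAP-549-labelled MS2 coat protein from 0.7 or 1.5 nM to 3 µM in twofold steps. Apparent KD is the per-design median of normalised cluster binding-curve fits.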", "units": {"apparent KD of MS2 coat protein": "nM"}}
{"sequence": "CCGUCACAUGAGGAUCACCCAUGUGCGGAAGGAGCGGACGACAGUCCAGGUAGGUCGCCGUAUAGCCAAUGACCAGCAGUGUCGG [Betesotiqu]", "apparent KD of MS2 coat protein": 10.6}
{"sequence": "AUACAUGAGGAUCACCCAUGUUAUAGUGAAGGAGCGACAUUUAUGUCAGGUAGGUCGCACUAUUGUUUAAUGAUUCUUGGAUCUU [JR_ExcArginiA_Sub017]", "apparent KD of MS2 coat protein": 15.2}
{"sequence": "ACAUGUUGGUGGUACCAACGAAGGCGGAAACGAGGACCGGUACGGCCGCCACUCGGCGACAUGAGGAUCACCCAUGUGGUUAAAA [Exclusion - Tryptophan A (Freestyle 3)]", "apparent KD of MS2 coat protein": 398}
{"sequence": "UGUAUGUGAACUGAUACCAGACCUCAAUCUUGAGGAUCACCCAAGGAGGACGAAAGUCCGGUCCCUUGGCAGCAGUUCACAUACU [ThBS - Unstable 2]", "apparent KD of MS2 coat protein": 664}
{"sequence": "CGGUCGGUCGGUCGGUGAGUAUGGGAUGAAGGAGCGUGGGAAGCUACAGGUAGGUCGCAUCCGGGACAUGAGGAUCACCCAUGUU [#19 Same State - Arginine A]", "apparent KD of MS2 coat protein": 27.7}
{"sequence": "UUCAGCUAGUCGGCCGCCACUACUUGAGGAUCACCCAGGUAGGUCCACACUGCUUCGGCAGUGAGUAGGACCGGGACUAGCUGAG", "apparent KD of MS2 coat protein": 32.8}
{"sequence": "UGUAUGGACUGAAGGAGCGCCUCAAAAUAGCUUGAGGAUCACCCAAGUAAGGCGAAAGCCGGGCAGGUAGGUCGCAGUCCAUACU [ArgBX 3]", "apparent KD of MS2 coat protein": 14.3}
{"sequence": "UACCGAUGAAGAAGGAGCGAUUUUAUGUUACAUGAGGAUCACCCAUGUGGACUAGGUGAAGAUCAGGUAGGUCGCUUCAUCGGUA [SSAB NP+V+V2 #20]", "apparent KD of MS2 coat protein": 20.3}
{"sequence": "AGACAUGAGGAUCACCCAUGUAGUACGGAUACCAGAUCCAGAUGUAUCCCUUGGCAGCUGUGGUACAGCGUUACAUCGCUCGUAG [Exclusion - Theophylline A (Freestyle 21)]", "apparent KD of MS2 coat protein": 13.3}
{"sequence": "GUGUCCUAGUCGGCCGCCACUGGUACGAAUACCUUCACCCGUGUGCACAUGAGGAUCACCCAUGUCAGGACCGGGACUAGGGUGU [SSTryp B #24]", "apparent KD of MS2 coat protein": 10}
{"sequence": "GGACUAACCAGAAGGAGCGAUACGCAGAAACUGCAAUUUCCUCUACACGAGGAUCACCCGUGUCAGGUAGGUCGCUGGUUAGUCG", "apparent KD of MS2 coat protein": 26.9}
{"sequence": "GCUACGUGCUGAAGGAGCGUGGACCUAAACAUGAGGAUCACCCAUGUCGUGUAGGCAGAUUCACAGGUAGGUCGCAGCACGUAGC [SSAB NP+V+V2 #14 Same Structure]", "apparent KD of MS2 coat protein": 92.2}
{"sequence": "ACAUGAGGAUCACCCAUGUAGCCUAGGGAAGGAGCGUCGUAAGAGACAGGUAGGUCGCCCGCAUGUGAGUCAUCCAUGACGAGGG [#18 Same State - Arginine A]", "apparent KD of MS2 coat protein": 25.9}
{"sequence": "AGAUGUAGCGGAAGGAGCGUCAUGAGGAUCACCCAUGACUCCCGUUGUGGGAGUUCCUUAGGUCAGGUAGGUCGCCGUUACGUCA [Omei Arg B SS B v5]", "apparent KD of MS2 coat protein": 390}
{"sequence": "GCACCAGGUACGGAUACCAGAGCAAGCCAAAUGAGUGACCAUGAGGAUCACCCAUGGUUGCUCCCUUGGCAGCCGUACCUGGUGC [ETB NP+V+V2 #13 Diff Apt, +-Same Structure]", "apparent KD of MS2 coat protein": 12}
{"sequence": "UGUAUGUGAUCUGAUACCAGUCCAACUGGUAAAACCUGAGGAUCACCCUGGUAAAAUUGGGACCCUUGGCAGCAGAUCGCAUACU", "apparent KD of MS2 coat protein": 350}
{"sequence": "AACGUAUACAGAAGGAGCGUGAUUUAUAAUUCUUUAAAAUAUACAUGAGGAUCACCCAUGUCACAGGUAGGUCGCUGUAUUCGUA [JR_ExcArginiB_Sub024]", "apparent KD of MS2 coat protein": 35.7}
{"sequence": "ACGCUGAUUGAUUACAAUCAGCGAAAAGAUACCAGUGGGUAAUCCCACCCUUGGCAGCUUAAAUAUGAGGAUCACCCAUAUGGUA [TheoAS 18 #MS2Right #BothOrNeither #AlternativeMS2]", "apparent KD of MS2 coat protein": 108}
{"sequence": "CUGGACAUGAGGAUCACCCAUGUAAAUCCUCGAGGACCGGUACGGCCGCCACUCGAACGAGUGGCGCGCGAGUGCGCACUCGCGC [aKa]", "apparent KD of MS2 coat protein": 41.4}
{"sequence": "AAUCAUAGGGCGGCCGCCACUAAACAUGAGGAUCACCCAUGUCUCGAGGGCUUGCGUUUGGGAAGUAGGACCGGGCCAAUAGUAA [Tryp B Ex Mod2]", "apparent KD of MS2 coat protein": 19.1}
{"sequence": "AGAGCAUUGACGGCCGCCACUCAUGUCACAUGAGGAUCACCCAUGUGAUGGGUAAUCGCCCGGUUGAGGACCGGGUCAAUGCUCA [Omei Tryp SS B v3]", "apparent KD of MS2 coat protein": 6.99}
{"test_system": "MS2 coat protein", "test": "apparent KD of MS2 coat protein; higher = weaker reporter binding", "settings": "Eterna round: R107; input ligand: theophylline 20 uM", "summary_of_the_method": "as §1", "units": {"apparent KD of MS2 coat protein": "nM"}}
{"sequence": "AUAACAUGAGGAUCACCCAUGUAAGCAGAUACCAGCUAGGAAACUAGCCCUUGGCAGCUGCAUAGUGAUCCAUAUAUCUGCUAAU [(M1)-(M2)-(T1)-(T2)-(M)'-(T)'_Design8]", "apparent KD of MS2 coat protein": 80.5}
{"sequence": "UACUUACAUGAGGAUCACCCAUGUGGCGAAGGAGCGGCAUGAGGGCCAGGUAGGUCGCGCCAACAUACAUACAUGAGGAUCUCCC [Same State Arginine A 4]", "apparent KD of MS2 coat protein": 127}
{"sequence": "UUGGCAGCAUGGGUGGCUGCCAAGGCUGAUACCAGCCACGAAAGUGGCCCUUGGCAGCAGCAAACAUGAGGAUCACCCAUGUUAA [(T)''-(M)'-(T)'-(Theo)-(Ms2)_Design3]", "apparent KD of MS2 coat protein": 105}
{"sequence": "CGUCGAAACUGAAGGAGCGAGAUAACAACAUUGGGUCUCAACAUGAGGAUCACCCAUGUAUCUCAGGUAGGUCGCGGUGUCACCG [Exclusion Arginine B GF19]", "apparent KD of MS2 coat protein": 267}
{"sequence": "CCGUCACAUGAGGAUCACCCAUGUGCGGAAGGAGCGGACGACAGUCCAGGUAGGUCGCCGUAUAGCCAAUGACCAGCAGUGUCGG [Betesotiqu]", "apparent KD of MS2 coat protein": 20.8}
{"sequence": "AUACAUGAGGAUCACCCAUGUUAUAGUGAAGGAGCGACAUUUAUGUCAGGUAGGUCGCACUAUUGUUUAAUGAUUCUUGGAUCUU [JR_ExcArginiA_Sub017]", "apparent KD of MS2 coat protein": 22.4}
{"sequence": "GGGCCCGUAAGCAGGCCCACAGCGGGUGAUACCAGCAAUAAAACUUGCCCUUGGCAGCACACAGCUACAUGAGGAUCACCCAUGU [Mausdi]", "apparent KD of MS2 coat protein": 59.3}
{"sequence": "ACAUGUUGGUGGUACCAACGAAGGCGGAAACGAGGACCGGUACGGCCGCCACUCGGCGACAUGAGGAUCACCCAUGUGGUUAAAA [Exclusion - Tryptophan A (Freestyle 3)]", "apparent KD of MS2 coat protein": 134}
{"sequence": "UGUAUGUGAACUGAUACCAGACCUCAAUCUUGAGGAUCACCCAAGGAGGACGAAAGUCCGGUCCCUUGGCAGCAGUUCACAUACU [ThBS - Unstable 2]", "apparent KD of MS2 coat protein": 737}
{"sequence": "CGGUCGGUCGGUCGGUGAGUAUGGGAUGAAGGAGCGUGGGAAGCUACAGGUAGGUCGCAUCCGGGACAUGAGGAUCACCCAUGUU [#19 Same State - Arginine A]", "apparent KD of MS2 coat protein": 43.3}
{"sequence": "UUCAGCUAGUCGGCCGCCACUACUUGAGGAUCACCCAGGUAGGUCCACACUGCUUCGGCAGUGAGUAGGACCGGGACUAGCUGAG", "apparent KD of MS2 coat protein": 32.2}
{"sequence": "UGUAUGGACUGAAGGAGCGCCUCAAAAUAGCUUGAGGAUCACCCAAGUAAGGCGAAAGCCGGGCAGGUAGGUCGCAGUCCAUACU [ArgBX 3]", "apparent KD of MS2 coat protein": 16.6}
{"sequence": "UCGAUGGUAUCUGAUACCAGUAGCGUGCGUUACAUGAGGAUCACCCAUGUGCCUAUACUUUACCCUUGGCAGCAGUGGAUUCGAU [theeternabot_sameState_MS2_Theo_B_22]", "apparent KD of MS2 coat protein": 144}
{"sequence": "UCGUGUGUUUCGGAUACCAGUGAAAUCGAUACAUGAGGAUCACCCAUGUGAGAGGAUGUACACCCUUGGCAGCUGUCUGUAUCUG [asczmullin]", "apparent KD of MS2 coat protein": 16.8}
{"sequence": "AGUAUUGGAAACAGUACUAGUGAUCCGGUCCGAGGACCGGUACGGCCGCCACUCGAUUUAAAUAAACAUGAGGAUCACCCAUGUA [Ex Tryptophan A 14]", "apparent KD of MS2 coat protein": 17.2}
{"sequence": "UACCGAUGAAGAAGGAGCGAUUUUAUGUUACAUGAGGAUCACCCAUGUGGACUAGGUGAAGAUCAGGUAGGUCGCUUCAUCGGUA [SSAB NP+V+V2 #20]", "apparent KD of MS2 coat protein": 31.9}
{"sequence": "UCGCUAUUGUCGGCCGCCACUACUGCAGGGAAACAAAUAUAACCACAUGAGGAUCACCCAUGUCUUAGGACCGGGACACCCAUCU [theeternabot_sameState_MS2_Trp_B_2]", "apparent KD of MS2 coat protein": 126}
{"sequence": "GCUGUAAGUGCAGAUACCAGCAAGUGAGGUUUCAUAUGACAUGAGGAUCACCCAUGUAUCUGCCCUUGGCAGCUGCACUUACAGC [#28 Same State - Theophylline B]", "apparent KD of MS2 coat protein": 24.2}
{"sequence": "UUCUUUAAGUCGGCCGCCACUGAAACAUGAGGAUCACCCAUGUAAAUUUGGGAGUAGUUAUAUUACAGGACCGGGACUAUAGUAA [JR_ExcTryptoB_Sub020]", "apparent KD of MS2 coat protein": 48.8}
{"sequence": "AGACAUGAGGAUCACCCAUGUAGUACGGAUACCAGAUCCAGAUGUAUCCCUUGGCAGCUGUGGUACAGCGUUACAUCGCUCGUAG [Exclusion - Theophylline A (Freestyle 21)]", "apparent KD of MS2 coat protein": 18.4}
